Reference: patent US20220144956A1 (Xencor, published 2022)
Changes are numbered by the printed parent chain. Names may count otherwise.

T1: human CD5 on human PBMCs / T cells (human, UniProt P06127 25-495)
T1 construct: whole, on cells
T1 sequence (looked up): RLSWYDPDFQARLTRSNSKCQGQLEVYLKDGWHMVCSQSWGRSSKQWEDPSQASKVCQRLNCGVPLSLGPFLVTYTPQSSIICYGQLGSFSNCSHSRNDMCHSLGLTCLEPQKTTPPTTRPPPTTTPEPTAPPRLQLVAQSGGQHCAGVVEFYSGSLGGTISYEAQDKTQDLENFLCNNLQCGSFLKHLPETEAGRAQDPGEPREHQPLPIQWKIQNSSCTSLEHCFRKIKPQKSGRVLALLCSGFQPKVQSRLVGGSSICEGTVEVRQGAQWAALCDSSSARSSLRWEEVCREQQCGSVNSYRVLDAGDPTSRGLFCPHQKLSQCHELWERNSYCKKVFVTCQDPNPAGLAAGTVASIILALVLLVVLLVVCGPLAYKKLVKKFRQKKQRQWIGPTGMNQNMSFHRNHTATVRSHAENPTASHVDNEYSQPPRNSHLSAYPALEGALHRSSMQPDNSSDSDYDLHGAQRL

T2: His-tagged human CD5 antigen (human, UniProt P06127 25-372, limits assumed)
T2 construct: not shown: His tag
T2 sequence (looked up): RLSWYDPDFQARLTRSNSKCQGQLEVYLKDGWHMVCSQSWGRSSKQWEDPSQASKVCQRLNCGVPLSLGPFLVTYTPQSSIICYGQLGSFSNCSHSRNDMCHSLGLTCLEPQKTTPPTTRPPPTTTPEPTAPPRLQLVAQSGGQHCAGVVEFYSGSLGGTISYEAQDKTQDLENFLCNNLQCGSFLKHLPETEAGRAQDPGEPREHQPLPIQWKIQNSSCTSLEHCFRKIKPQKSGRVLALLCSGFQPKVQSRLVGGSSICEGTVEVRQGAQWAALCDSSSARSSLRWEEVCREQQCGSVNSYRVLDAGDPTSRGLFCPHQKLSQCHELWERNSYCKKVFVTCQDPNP

B1: XENP35399 (bispecific antibody, human IgG1, kappa)
heavy: EVQLVESGGGVVQPGRSLRLSCTFSGFSLSTSGMGVGWIRQAPGKGLEWVAHIWWDDDVYYNPSLKSRLTITKDASTDTVYMELSSLRSEDTAVYYCVRRRATGTGFDYWGQGTLVTVSSASTKGPSVFPLAPSSKSTSGGTAALGCLVKDYFPEPVTVSWNSGALTSGVHTFPAVLQSSGLYSLSSVVTVPSSSLGTQTYICNVNHKPSDTKVDKKVEPKSCDKTHTCPPCPAPPVAGPSVFLFPPKPKDTLMISRTPEVTCVVVDVKHEDPEVKFNWYVDGVEVHNAKTKPREEEYNSTYRVVSVLTVLHQDWLNGKEYKCKVSNKALPAPIEKTISKAKGQPREPQVYTLPPSREEMTKNQVSLTCDVSGFYPSDIAVEWESDGQPENNYKTTPPVLDSDGSFFLYSKLTVDKSRWEQGDVFSCSVMHEALHNHYTQKSLSLSPGK
scFv-Fc: QLQVQESGPGLVKPSETLSLTCTVSGGSISNSYFSWGWIRQPPGKGLEWIGSFYYGEKTYYNPSLKSRATISIDTSKSQFSLKLSSVTAADTAVYYCPRGPTVIRGVIDSWGQGTLVTVSSGKPGSGKPGSGKPGSGKPGSEIVLTQSPATLSLSPGERATLSCRASQSVRSYLAWYQQKPGQAPRLLIYDASNRATGIPARFSGSGSGTDFTLTISSLEPEDFAVYYCQQRSNWPPTFGQGTKVEIKEPKSSDKTHTCPPCPAPPVAGPSVFLFPPKPKDTLMISRTPEVTCVVVDVKHEDPEVKFNWYVDGVEVHNAKTKPREEQYNSTYRVVSVLTVLHQDWLNGKEYKCKVSNKALPAPIEKTISKAKGQPREPQVYTLPPSREQMTKNQVKLTCLVKGFYPSDIAVEWESNGQPENNYKTTPPVLDSDGSFFLYSKLTVDKSRWQQGNVFSCSVMHEALHNHYTQKSLSLSPGK
light: NIVMTQSPSSLSASVGDRVTITCQASQDVGTAVAWYQQKPDQSPKLLIYWTSTRHTGVPDRFTGSGSGTDFTLTISSLQPEDIATYFCHQYNSYNTFGSGTKLEIKRTVAAPSVFIFPPSDEQLKSGTASVVCLLNNFYPREAKVQWKVDNALQSGNSQESVTEQDSKDSTYSLSSTLTLSKADYEKHKVYACEVTHQGLSSPVTKSFNRGEC
notes: also called prototype anti-TGFßRII×anti-CD5 bsAb having CD5-targeting arm based on clone 5D7; αTGFßRII×αCD5
B2: XENP37385 (bispecific antibody, human IgG1, kappa)
heavy: EVQLKESGAELVRPGGSVKISCKGSGYTFTNFAIHWVKQSHIKTLEWIGLISTSSGDVSYNQKFKDKATMTVDKSSSTAYMELARLTSEDSAIYYCARHYGANNYFDYWGQGTLVTVSSASTKGPSVFPLAPSSKSTSGGTAALGCLVKDYFPEPVTVSWNSGALTSGVHTFPAVLQSSGLYSLSSVVTVPSSSLGTQTYICNVNHKPSDTKVDKKVEPKSCDKTHTCPPCPAPPVAGPSVFLFPPKPKDTLMISRTPEVTCVVVDVKHEDPEVKFNWYVDGVEVHNAKTKPREEEYNSTYRVVSVLTVLHQDWLNGKEYKCKVSNKALPAPIEKTISKAKGQPREPQVYTLPPSREEMTKNQVSLTCDVSGFYPSDIAVEWESDGQPENNYKTTPPVLDSDGSFFLYSKLTVDKSRWEQGDVFSCSVMHEALHNHYTQKSLSLSPGK
scFv-Fc: B1 scFv-Fc
light: EIVLTQSPTIMSASPGEQVTMTCRTNSSVSSSYLHWYQQKSGASPKLWIYGTSNLASGVPTRFSGSGSGTSYSLTISSVEAGDAATYFCQQYSGYPLTFGGGTKVEIKRTVAAPSVFIFPPSDEQLKSGTASVVCLLNNFYPREAKVQWKVDNALQSGNSQESVTEQDSKDSTYSLSSTLTLSKADYEKHKVYACEVTHQGLSSPVTKSFNRGEC
B3: XENP37388 (bispecific antibody, human IgG1, kappa)
heavy: QVTLKESGAELVRPGASVKLSCKASGYSFTSYWMNWVKQRPGQGLEWIGMIHPSDSETRLNQKFKDKATLTVDKSSSTAYMQLSSPTSEDSAVYYCARWGDHDDAMDFWGQGTMVTVSSASTKGPSVFPLAPSSKSTSGGTAALGCLVKDYFPEPVTVSWNSGALTSGVHTFPAVLQSSGLYSLSSVVTVPSSSLGTQTYICNVNHKPSDTKVDKKVEPKSCDKTHTCPPCPAPPVAGPSVFLFPPKPKDTLMISRTPEVTCVVVDVKHEDPEVKFNWYVDGVEVHNAKTKPREEEYNSTYRVVSVLTVLHQDWLNGKEYKCKVSNKALPAPIEKTISKAKGQPREPQVYTLPPSREEMTKNQVSLTCDVSGFYPSDIAVEWESDGQPENNYKTTPPVLDSDGSFFLYSKLTVDKSRWEQGDVFSCSVMHEALHNHYTQKSLSLSPGK
scFv-Fc: B1 scFv-Fc
light: DIVLTQSPASLSASVGESVTITCRPSENIYGYFAWYQQRQGKSPQLLVYNAKTLAEGVPSRFSGSGSGTHFSLKINSLQPEDFGTYYCQHHYGTPFTFGPGTKVDIKRTVAAPSVFIFPPSDEQLKSGTASVVCLLNNFYPREAKVQWKVDNALQSGNSQESVTEQDSKDSTYSLSSTLTLSKADYEKHKVYACEVTHQGLSSPVTKSFNRGEC
notes: also called anti-TGFßRII×anti-CD5 bsAb based on Cd5-B (by the order of the sentence)
B4: Cd5-B H2L1 (further humanized variant of Cd5-B) (antibody, V domains shown)
VH: QVQLVQSGAEVKKPGASVKVSCKASGYSFTSYWMNWVRQAPGQGLEWMGMIHPSDSETRYNQKFQGRVTMTVDKSTSTAYMELSSLRSEDTAVYYCARWGDHDDAMDFWGQGTMVTVSS
VL: DIVLTQSPSSLSASVGDRVTITCRPSENIYGYFAWYQQKPGKSPKLLVYNAKTLAEGVPSRFSGSGSGTDFTLTISSLQPEDFATYYCQHHYGTPFTFGPGTKVEIK
B5: Cd5-B H1.23_L1 (further humanized variant of Cd5-B) (antibody, V domains shown)
VH: EVQLVQSGAEVKKPGESLKISCKASGYSFTSYWMNWVRQMPGKGLEWMGMIYPSDSETRYNQSFQGQVTISVDKSISTAYLQWSSLKASDTAMYYCARWGDHDDAMDFWGQGTMVTVSS
VL: B4 VL
B6: Cd5-B H1.36_L1 (further humanized variant of Cd5-B) (antibody, V domains shown)
VH: B5 VH with Y52H, S63K
VL: B4 VL
B7: XENP28297 (antibody, human IgG1, kappa, V domains shown)
VH: QLQVQESGPGLVKPSETLSLTCTVSGGSISNSYFSWGWIRQPPGKGLEWIGSFYYGEKTYYNPSLKSRATISIDTSKSQFSLKLSSVTAADTAVYYCPRGPTVIRGVIDSWGQGTLVTVSS
VL: EIVLTQSPATLSLSPGERATLSCRASQSVRSYLAWYQQKPGQAPRLLIYDASNRATGIPARFSGSGSGTDFTLTISSLEPEDFAVYYCQQRSNWPPTFGQGTKVEIKR
modifications: The antibody was labeled with Alexa647 in the cell-binding assay. The dye position is not stated.
notes: also called bivalent anti-TGFßRII mAb based on TBRII-A; copies: 2 + 2
B8: XENP33038 (antibody, human IgG1, kappa, V domains shown)
VH: EVQLVESGGGLVKPGGSLRLSCAASGFTFSSFSMNWVRQAPGKGLEWVSSISSSSSYIYYTDSVKGRFTISRDNAKNSLYLQMNSLRAEDTAVYYCARGYWGFDYWGQGTLVTVSS
VL: DIQMTQSPSSLSASVGDRVTITCRASQGIRNDLGWYQQKPGKAPKRLIYAASSLQSGVPSRFSGSASGTEFTLTISSLQPEDFATYYCLQHNSNPLTFGGGTKVEIKR
modifications: Antibody labeled with Alexa647 in the assay; attachment sites not stated.
notes: labeled with Alexa647; also called illustrative anti-TGFßRII mAb XENP33038; copies: 2 + 2
B9: XENP35401 (antibody, human IgG1, kappa, V domains shown)
VH: EVQLVESGGGVVQPGRSLRLSCTFSGFSLSTSGMGVGWIRQAPGKGLEWVAHIWWDDDVYYNPSLKSRLTITKDASTDTVYMELSSLRSEDTAVYYCVRRRATGTGFDYWGQGTLVTVSS
VL: NIVMTQSPSSLSASVGDRVTITCQASQDVGTAVAWYQQKPDQSPKLLIYWTSTRHTGVPDRFTGSGSGTDFTLTISSLQPEDIATYFCHQYNSYNTFGSGTKLEIKR
notes: IgG1 backbone with E233P/L234V/L235A/G236del/S267K ablation variant; also called bivalent anti-CD5 mAb based on clone 5D7; 5D7; copies: 2 + 2

How the values were obtained:
[1] = molecular target: T1, human CD5 on human PBMCs / T cells; test: flow cytometry on unstimulated human PBMCs, anti-human Fc Alexa647 secondary
Procedure: Next, cell binding of the bispecific antibodies were investigated. Unstimulated PBMCs were incubated with the indicated dose of bispecific antibodies for 1 hour on ice and washed. Next, the PBMCs were stained with goat anti-human Fc secondary antibody conjugated to Alexa647 (to assess binding of the bispecific antibodies) and antibodies against cell surface antigens (to define T cell populations) for 40 minutes on ice. Finally, the cells were analyzed by flow cytometry.

[2] = molecular target: T2, His-tagged human CD5 antigen; test: worded comparison of affinity (Octet KD values in FIG. 68)
Description: In particular, His-tagged human and cynomolgus CD5 antigen were captured using HIS1K sensors and dipped into multiple concentrations of the bispecific antibodies.

[3] = molecular target: T3, His-tagged cynomolgus CD5 antigen (cynomolgus monkey); test: method not stated; the filing prints 'TGFßRII' but the sentence is about restoring the CD5 affinity of Cd5-B VH variants, so the target is taken as CD5
T3 construct: also called cyno CD5

[4] = molecular target: T2, His-tagged human CD5 antigen; test: as above
[5] = molecular target: T4, human TGFßRII on human PBMCs / T cells (human, UniProt P37173 23-567); test: flow cytometry, Alexa647-labeled mAb on anti-CD3 activated human PBMCs
T4 construct: whole, on cells; also called cell-surface TGFßRII; TGFßR2

[6] = molecular target: T1, human CD5 on human PBMCs / T cells; test: cell binding on unstimulated human PBMCs (FIG. 67)

T4 sequence (P37173 23-567): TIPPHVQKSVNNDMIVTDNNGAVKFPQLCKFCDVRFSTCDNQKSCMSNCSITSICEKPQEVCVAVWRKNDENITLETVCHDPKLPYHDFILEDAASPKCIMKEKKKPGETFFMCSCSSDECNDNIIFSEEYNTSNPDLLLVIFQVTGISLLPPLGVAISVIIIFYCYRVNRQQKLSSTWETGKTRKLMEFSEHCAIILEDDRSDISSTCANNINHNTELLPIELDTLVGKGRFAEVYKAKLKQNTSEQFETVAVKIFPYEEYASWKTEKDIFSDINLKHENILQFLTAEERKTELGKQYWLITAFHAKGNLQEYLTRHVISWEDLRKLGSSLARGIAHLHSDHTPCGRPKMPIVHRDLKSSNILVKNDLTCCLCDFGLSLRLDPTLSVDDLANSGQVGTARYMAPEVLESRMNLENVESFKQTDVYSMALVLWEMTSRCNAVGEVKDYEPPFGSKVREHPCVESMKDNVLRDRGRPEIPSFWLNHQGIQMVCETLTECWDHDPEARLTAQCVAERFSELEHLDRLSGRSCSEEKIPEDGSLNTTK

Binder | Kd [3] [nM] | Kd [4] [nM] | further results
B1 |  |  | binding result [1]: binds
B2 |  |  | binding result [2]: binds
B3 |  |  | binding result [1]: binds
B4 | 0.3 | 2 | 
B5 | 3 | 4 | 
B6 | 2 | 4 | 
B7 |  |  | binding result [5]: binds
B8 |  |  | binding result [5]: binds
B9 |  |  | binding result [6]: binds
